Bridge positions count the residues as written; N and C are the ends. Square brackets hold non-standard residues; d marks the D form. Ends that are not written are not given here. I, II: the chains in the order shown. 1Nal = N[C@@H](Cc1cccc2ccccc12)C(=O)O; PEG = not defined here
T1: human erythropoietin receptor on Ba/F3-huEPOR cells (human, UniProt P19235 25-508)
T1 sequence (looked up): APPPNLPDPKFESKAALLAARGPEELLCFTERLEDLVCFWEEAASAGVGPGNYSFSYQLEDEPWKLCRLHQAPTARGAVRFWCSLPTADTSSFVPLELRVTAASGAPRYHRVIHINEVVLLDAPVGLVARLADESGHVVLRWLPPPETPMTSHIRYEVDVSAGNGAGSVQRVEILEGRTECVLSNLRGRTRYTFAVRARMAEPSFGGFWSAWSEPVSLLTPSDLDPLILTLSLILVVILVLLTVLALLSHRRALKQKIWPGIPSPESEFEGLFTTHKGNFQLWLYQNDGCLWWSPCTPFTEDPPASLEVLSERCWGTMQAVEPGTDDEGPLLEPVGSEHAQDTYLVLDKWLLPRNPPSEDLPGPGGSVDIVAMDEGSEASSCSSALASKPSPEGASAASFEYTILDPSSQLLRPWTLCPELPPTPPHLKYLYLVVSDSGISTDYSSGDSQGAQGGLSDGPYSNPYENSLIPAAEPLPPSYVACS


What was measured:
[1] = molecular target: T1, human erythropoietin receptor on …; assay: cell-based or functional assay
[2] = molecular target: T1, human erythropoietin receptor on …; assay: cell-based or functional assay; remark: listed apart in the source

| EC50 (nM), bioassay (Ba/F3-huEPOR cell proliferation) [1] [nM] | EC50, bioassay (Ba/F3-huEPOR cell proliferation) [2] [nM] | Binder |
| --- | --- | --- |
| 5 | – | Peptide dimer of Example 10, Code No. 17644 (R1 = R2 = GGTYSCHFGPLTBVCRPQGG, both N-termini acetylated, n1 = 1, n2 = 0, lysine linker) (cysteine pairing not given here; also: dimer: C-termini joined through lysine linker, one chain (R1) via a beta-alanine, the other (R2) directly) peptide 1: Ac-GGTYSCHFGPLT[1Nal]VCRPQGG peptide 2: Ac-GGTYSCHFGPLT[1Nal]VCRPQGG |
| – | 200 | GGTYSCHFGPLT[1Nal]VCRPQGG (cysteine pairing not given here) [monomeric compound having the sequence GGTYSCHFGPLTBVCRPQGG (SEQ ID NO: 7)] |
| 0.4 | – | {PEG}-GGTYSCHFGPLT[1Nal]VCRPQGG (not fully specified (C-terminus); cysteine pairing not given here; reading uncertain; also: homodimer: C-termini joined via beta-alanine to a lysine linker, PEG size not given here) |
| 6 | – | Peptide dimer of Example 2, Code No. 20528 (R1 = R2 = GGTYSCHFGPLTBVCRPQGG, n1 = 1, n2 = 0, lysine linker, free cysteine thiols) (cysteine pairing not given here; also: dimer: C-termini joined through lysine linker, one chain (R1) via a beta-alanine, the other (R2) directly) peptide 1: GGTYSCHFGPLT[1Nal]VCRPQGG peptide 2: GGTYSCHFGPLT[1Nal]VCRPQGG |
| 100 | – | GTYSCHFGPLT[1Nal]VCRPQ (cysteine pairing not given here; also: dimer: C-termini of both chains bound to lysine linker) |
| 2 | – | Ac-GGTYSCHFGPLT[1Nal]VCRPQGGK (not fully specified; also: cysteine state not given here) |
| 0.4 | – | Peptide dimer of Example 7, Code No. 17286 (R1 = R2 = GGTYSCHFGPLTBVCRPQGG, n1 = 1, n2 = 0, lysine linker, intramolecular disulfide in each chain) (disulfide I:6-I:15, II:6-II:15; not fully specified (C-terminus); also: dimer: C-termini joined by lysine linker, R1 through βAla, R2 directly, which chain is R1 not given here) peptide 1: GGTYSCHFGPLT[1Nal]VCRPQGG peptide 2: GGTYSCHFGPLT[1Nal]VCRPQGG |
| 0.3 | – | GGTYSCHFGPLT[1Nal]VCRPQGG (disulfide 6-15; not fully specified (C-terminus); also: dimer: each chain joined through βAla to lysine linker) |
| 50 | – | GGTYSCHFGPLT[1Nal]VCRPQ (cysteine pairing not given here; also: homodimer: C-termini joined through a lysine linker) |
| 5 | – | GGTYSCHFGPLT[1Nal]VCRPQGG (not fully specified (C-terminus); cysteine pairing not given here; also: homodimer: C-termini joined via beta-alanine to a lysine linker) |
| 0.5 | – | GGTYSCHFGPLT[1Nal]VCRPQGG (disulfide 6-15; also: dimer: C-termini of both chains bound to lysine (amide) linker) |
| 6 | – | GGTYSCHFGPLT[1Nal]VCRPQGG (cysteine pairing not given here; also: dimer: two identical chains joined at C-termini through a lysine amide linker) |

From US20060270831A1 (AFFYMAX, published 2006)
